Data on one protein can be found in PMC6891851 (ACS Central Science, 2019).

Square brackets hold non-standard residues; d marks the D form.

This data set deals with the molecule itself. Briefly: hydrogelation with CD, TEM and rheology.

B1: AcVES3 peptide hydrogel (peptide)
peptide: Ac-VEVSVSVEV[dP]PTEVSVEVEV-NH2
SMILES: CC(=O)N[C@H](C(=O)N[C@@H](CCC(=O)O)C(=O)N[C@H](C(=O)N[C@@H](CO)C(=O)N[C@H](C(=O)N[C@@H](CO)C(=O)N[C@H](C(=O)N[C@@H](CCC(=O)O)C(=O)N[C@H](C(=O)N1CCC[C@@H]1C(=O)N1CCC[C@H]1C(=O)N[C@H](C(=O)N[C@@H](CCC(=O)O)C(=O)N[C@H](C(=O)N[C@@H](CO)C(=O)N[C@H](C(=O)N[C@@H](CCC(=O)O)C(=O)N[C@H](C(=O)N[C@@H](CCC(=O)O)C(=O)N[C@H](C(N)=O)C(C)C)C(C)C)C(C)C)C(C)C)[C@@H](C)O)C(C)C)C(C)C)C(C)C)C(C)C)C(C)C
Regarding B1, the binding result is listed as “binds”.
